{
  "source": "patent US20090111769A1",
  "about": "“Antithrombotic Compound” (priority 2005, published 2009)",
  "key": {"[1]": {"test": "Pharmacokinetics after s.c. administration in rat (plasma concentration by anti-Xa activity)", "assay_type": "in vivo, male Wistar rats", "conditions": "male, Wistar, sc, 500 nmol/kg", "description": "The pharmacokinetic properties of compound 3 were studied in male Wistar rats of 300-400 gr. The rats were anaesthetized by inhalation of a mixture of O2/N2O/isoflurane, after which the right jugular vein was cannulated. The next day rats were treated s.c. with doses of 100 or 500 nmol/kg. After s.c. administration, blood was sampled at several time intervals. Then the blood was centrifuged after which the plasma was siphoned off and stored at −20° C. until use. The concentration of the tested compound was measured amidolytically with S2222 (Chromogenix, Chromogenics Ltd, Molndal, Sweden) by determination of the anti-Xa activity based on the method of Teien and Lie in the obtained plasma samples against a calibration curve which was made of the stock solution of the tested compound itself. (Teien A N, Lie M. Evaluation of an amidolytic heparin assay method increased sensitivity by adding purified antithrombin III. Thromb. Res. 1977, 10: 399-410). The concentration in the samples was expressed in nmol/mL and the kinetic parameters were calculated with the noncompartment model of WinNonlin."}, "[2]": {"tested_on": "human platelet aggregation induced by TRAP", "test": "In vitro test for inhibition of human platelet aggregation induced by TRAP (washed platelets)", "assay_type": "cell-based", "conditions": "read-out: IC50, inhibition of human platelet aggregation induced by 5 μM TRAP", "description": "This aggregation can be determined by measuring the optical density of the WPL. The in vitro test described here is used to analyze the activity of a test compound to inhibit TRAP-induced aggregation of human platelets. […] Between two measurements, the plate is shaking for 40 seconds at 1,000 rpm."}, "[3]": {"tested_on": "human platelet aggregation induced by ADP", "test": "In vitro test for inhibition of human platelet aggregation induced by ADP (platelet rich plasma)", "assay_type": "cell-based", "conditions": "read-out: IC50, inhibition of human platelet aggregation induced by 5 μM ADP", "description": "• 1. Sysmex blood cell counter model KX-21. • 2. […] Absorption is measured with the Labsystems iEMS program. • 3. Blood collection system 600 mL with needle, art P4203 (NPBI). • 4.\nThe optical density (OD620) is then measured at 620 nm. […] This is to verify the stability of the platelets (absence of spontaneous platelet aggregation). […] Between two measurements, the plate is shaking for 40 seconds at 1,000 rpm. Each test compound is investigated in at least 2 experiments using PRP from different volunteers.\nThe mean OD at each compound concentration (including vehicle) is calculated at t=0 min and t=10 min. The percentage inhibition at each concentration is calculated using the formula: […]"}},
  "note": "Structures can show the parent of a compound that is named as a salt.",
  "data": [
    {"smiles": "CO[C@H]1O[C@H](COS(=O)(=O)O)[C@@H](O[C@@H]2O[C@@H](C(=O)O)[C@@H](O[C@H]3O[C@H](COS(=O)(=O)O)[C@@H](O[C@@H]4O[C@H](C(=O)O)[C@@H](O[C@H]5O[C@H](COS(=O)(=O)O)[C@@H](OCCOCCOCCOCCNC(=O)COCCOCCOCCOCCNC(=O)c6cccc(S(=O)(=O)N[C@@H](Cc7ccc(OCCCCC8CCNCC8)cc7)C(=O)O)c6)[C@H](OC)[C@H]5OC)[C@H](OC)[C@H]4OC)[C@H](OS(=O)(=O)O)[C@H]3OS(=O)(=O)O)[C@H](OC)[C@H]2OC)[C@H](OS(=O)(=O)O)[C@H]1OS(=O)(=O)O", "note": "[Compound 3, sodium salt]", "values": [
      {"measurement": "Tmax", "setting": "[1]; n = 3", "result": 2.5, "unit": "h"},
      {"measurement": "AUC(0-inf)", "setting": "[1]; n = 3, mean ± s.e.m.", "result": "75.3 ± 3.2", "unit": "µM·h"},
      {"measurement": "Cmax", "setting": "[1]; n = 3, mean ± s.e.m.", "result": "5 ± 0.4", "unit": "µM"},
      {"measurement": "half-life", "setting": "[1]; n = 3, mean ± s.e.m., read-out: T½ eli (converted)", "result": "9.3 ± 0.2", "unit": "h"}
    ]},
    {"smiles": "CCCCS(=O)(=O)N[C@@H](Cc1ccc(OCCCCC2CCNCC2)cc1)C(=O)O", "note": "[tirofiban]", "values": [
      {"measurement": "IC50", "setting": "[2]", "result": "30 to 60", "unit": "nM"},
      {"measurement": "IC50", "setting": "[3]", "result": "30 to 60", "unit": "nM"}
    ]}
  ]
}
